Key:
Assay in all cases: pull-down
[1] = molecular target: T1, His6-GIGYF2 GYF domain (residues 529-597) (human, UniProt Q6Y7W6 529-597)
T1 sequence (looked up): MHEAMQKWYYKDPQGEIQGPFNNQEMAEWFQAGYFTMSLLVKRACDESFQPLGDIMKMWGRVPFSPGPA

[2] = molecular target: T2, His6-GIGYF2 GYF domain F592E (human, UniProt Q6Y7W6 529-597, F592E)
T2 sequence (looked up): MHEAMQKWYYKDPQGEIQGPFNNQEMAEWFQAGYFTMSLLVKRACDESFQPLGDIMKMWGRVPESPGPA

[3] = molecular target: T3, His6-GIGYF1 GYF domain F533E (human, UniProt O75420 470-538, F533E)
T3 sequence (looked up): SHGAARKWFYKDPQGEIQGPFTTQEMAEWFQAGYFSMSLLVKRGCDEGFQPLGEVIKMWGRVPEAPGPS

[4] = molecular target: T4, His6-GIGYF1 GYF domain (residues 470-538) (human, UniProt O75420 470-538)
T4 sequence (looked up): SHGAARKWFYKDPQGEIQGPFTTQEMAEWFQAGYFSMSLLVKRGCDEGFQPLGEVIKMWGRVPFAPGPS

binding result [1]: binds | binding result [2]: binds | binding result [3]: binds | binding result [4]: binds
B1: GST-tagged fragment of the first tetra-proline region of TTP (residues 68-78) (peptide, UniProt P26651 68-78, looked up)
chain: GWVPPPPGFAP
